The results in this text go back to patent US20030186441A1 (MORPHOTEK, published 2003).

This test concerns the target T1, full length hMLH1 protein (human, UniProt P40692 2-756).
T1 construct: also called MLH1 (human)
T1 sequence: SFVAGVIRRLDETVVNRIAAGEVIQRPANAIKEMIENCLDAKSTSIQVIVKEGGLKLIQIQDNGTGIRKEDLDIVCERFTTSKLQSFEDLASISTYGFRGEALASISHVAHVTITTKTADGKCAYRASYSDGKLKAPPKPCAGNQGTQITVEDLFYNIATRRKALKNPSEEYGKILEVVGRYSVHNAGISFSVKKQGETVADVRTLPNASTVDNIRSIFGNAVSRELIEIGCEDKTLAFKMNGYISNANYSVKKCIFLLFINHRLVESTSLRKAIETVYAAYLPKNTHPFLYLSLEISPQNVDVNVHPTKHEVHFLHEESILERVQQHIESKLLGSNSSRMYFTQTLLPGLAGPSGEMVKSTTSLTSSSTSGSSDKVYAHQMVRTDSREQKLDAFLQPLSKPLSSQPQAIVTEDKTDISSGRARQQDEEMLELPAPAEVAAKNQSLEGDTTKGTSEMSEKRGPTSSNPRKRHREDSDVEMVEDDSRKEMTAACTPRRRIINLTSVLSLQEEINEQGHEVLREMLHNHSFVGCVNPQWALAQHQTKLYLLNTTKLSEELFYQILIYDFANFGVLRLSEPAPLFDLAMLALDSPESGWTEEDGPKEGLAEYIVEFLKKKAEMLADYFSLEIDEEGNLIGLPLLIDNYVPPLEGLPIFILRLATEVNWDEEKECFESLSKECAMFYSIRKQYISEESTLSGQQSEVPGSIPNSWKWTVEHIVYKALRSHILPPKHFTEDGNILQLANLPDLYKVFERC
The test can be described thus: co-immunoprecipitation of in vitro translated proteins with anti-hMLH1 mAb; converse experiment with N terminal hPMS2 antibody. The text has this:
[…]. […] Lane 6 contains a nonprogrammed reticulocyte lysate. In both panels A and B, autoradiographs of immunoprecipitated products are shown. When a 35S labelled, full-length hMLH1 protein (FIG. 3A, lane 5) was mixed with the unlabelled carboxyl terminal hPMS2 polypeptide, a monoclonal antibody (mAb) to the carboxyl terminus of hPMS2 efficiently immunoprecipitated the labeled hMLH1 protein (lane 1). No hMLH1 protein was precipitated in the absence of hPMS2 (lane 2). Conversely, when the 35S labelled carboxyl terminus of hPMS2 (lane 3) was incubated with unlabelled, full length hMLH1 protein, an anti hMLH1 mAb precipitated the hPMS2 polypeptide (lane 4). In the absence of the unlabelled hMLH1 protein, no hPMS2 protein was precipitated by this mAb (lane 6).
Immunoprecipitation. Immunoprecipitations were performed on in vitro translated proteins by mixing the translation reactions with 1 μg of the MLH1 specific monoclonal antibody (mAB) MLH14 (Oncogene Science, Inc.), a polyclonal antibody generated to codons 2-20 of hPMS2 described above, or a polyclonal antibody generated to codons 843-862 of hPMS2 (Santa Cruz Biotechnology, Inc.) in […] of EBC buffer (50 mM Tris, pH 7.5, 0.1 M NaCl, 0.5% NP40). […]

B1: hPMS2-134 (containing codons 1-134 of hPMS2) (other)
chain: MERAESSSTEPAKAIKPIDRKSVHQICSGQVVLSLSTAVKELVENSLDAGATNIDLKLKDYGVDLIEVSDNGCGVEEENFEGLTLKHHTSKIQEFADLTQVETFGFRGEALSSLCALSDVTISTCHASAKVGTR
Take B1: the binding result was “no binding”.
